# Experimental data: publication PMC3433420, “Comprehensive Binary Interaction Mapping of SH2 Domains via Fluorescence Polarization Reveals Novel Functional Diversification of ErbB Receptors” (PLoS ONE, 2012)
# “And” between values parts separate entries of the source, which are not always exact repeats. Equal entries are not always repeated. Non-standard residues stand in square brackets, D forms with d. No end group written: not given here. pY = N[C@@H](Cc1ccc(OP(=O)(O)O)cc1)C(=O)O; Rhodamine = not defined here
# T1: BLNK SH2 domain (human, UniProt Q8WV28 346-453)
# T1 construct: BLNK, human; source: bacterial expression, purified
# T1 sequence (looked up): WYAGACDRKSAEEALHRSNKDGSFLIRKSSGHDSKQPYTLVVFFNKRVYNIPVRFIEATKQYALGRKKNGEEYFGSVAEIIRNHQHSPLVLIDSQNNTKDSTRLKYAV
# T2: SH3BP2 SH2 domain (human, UniProt P78314 457-555)
# T2 construct: SH3BP2, human; source: bacterial expression, purified
# T2 sequence (looked up): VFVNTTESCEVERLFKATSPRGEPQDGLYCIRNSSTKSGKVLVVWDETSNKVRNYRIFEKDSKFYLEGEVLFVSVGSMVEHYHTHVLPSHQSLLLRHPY
# T3: BCAR3 SH2 domain (human, UniProt O75815 154-253)
# T3 construct: BCAR3, human; source: bacterial expression, purified
# T3 sequence (looked up): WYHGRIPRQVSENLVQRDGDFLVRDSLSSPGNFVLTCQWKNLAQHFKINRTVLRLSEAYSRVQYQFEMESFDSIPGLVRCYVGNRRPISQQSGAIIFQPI
# T4: PTPN11 tandem SH2 domains (human)
# T4 construct: PTPN11, human; also called PTPN11-NC; source: bacterial expression, purified
# T4 sequence (Q06124 whole entry, looked up): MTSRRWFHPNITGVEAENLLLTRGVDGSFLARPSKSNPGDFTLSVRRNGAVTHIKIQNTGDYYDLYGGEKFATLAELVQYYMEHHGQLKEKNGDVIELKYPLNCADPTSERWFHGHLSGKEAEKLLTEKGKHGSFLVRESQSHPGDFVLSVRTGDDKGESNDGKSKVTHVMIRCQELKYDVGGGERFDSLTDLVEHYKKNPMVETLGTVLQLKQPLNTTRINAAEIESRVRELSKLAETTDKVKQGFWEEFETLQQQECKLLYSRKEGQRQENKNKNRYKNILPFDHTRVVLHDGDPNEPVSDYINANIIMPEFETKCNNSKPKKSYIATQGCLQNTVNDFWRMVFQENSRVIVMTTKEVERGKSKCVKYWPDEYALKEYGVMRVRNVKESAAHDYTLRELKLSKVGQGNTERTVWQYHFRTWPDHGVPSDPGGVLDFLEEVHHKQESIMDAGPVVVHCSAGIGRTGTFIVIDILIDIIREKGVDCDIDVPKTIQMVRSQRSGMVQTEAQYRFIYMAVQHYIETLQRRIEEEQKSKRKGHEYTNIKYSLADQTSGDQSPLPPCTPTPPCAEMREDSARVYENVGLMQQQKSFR
# T5: GRB10 SH2 domain (human, UniProt Q13322 493-574)
# T5 construct: GRB10, human; source: bacterial expression, purified
# T5 sequence (looked up): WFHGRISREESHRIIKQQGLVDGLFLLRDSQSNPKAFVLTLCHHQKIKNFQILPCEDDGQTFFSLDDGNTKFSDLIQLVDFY
# Experiments:
# Experiment in all cases: peptide or protein array; SH2/PTB proteins spotted on aldehyde slides, rhodamine peptide titrated in buffer B (20 mM HEPES, 100 mM KCl, 0.1% Tween-20, 5 mM DTT, pH 7.8), 1 h at room temperature; replicate assays
# Conditions in all cases: both partners purified
# CRK SH2 domain = target: T6, CRK SH2 domain (human, UniProt P46108 13-118)
# T6 construct: CRK, human; source: bacterial expression, purified
# BLNK SH2 domain = target: T1, BLNK SH2 domain
# SH3BP2 SH2 domain = target: T2, SH3BP2 SH2 domain
# GRB7 SH2 domain = target: T7, GRB7 SH2 domain (human, UniProt Q14451 431-527)
# T7 construct: GRB7, human; source: bacterial expression, purified
# SH2B3 SH2 domain = target: T8, SH2B3 SH2 domain (human, UniProt Q9UQQ2 364-462)
# T8 construct: SH2B3, human; source: bacterial expression, purified
# BCAR3 SH2 domain = target: T3, BCAR3 SH2 domain
# [1] = target: T4, PTPN11 tandem SH2 domains
# GRB10 SH2 domain = target: T5, GRB10 SH2 domain
# T7 sequence (Q14451 431-527): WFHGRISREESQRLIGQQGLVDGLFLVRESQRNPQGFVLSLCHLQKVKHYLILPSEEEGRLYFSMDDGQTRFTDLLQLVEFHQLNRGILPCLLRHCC
# T8 sequence (Q9UQQ2 364-462): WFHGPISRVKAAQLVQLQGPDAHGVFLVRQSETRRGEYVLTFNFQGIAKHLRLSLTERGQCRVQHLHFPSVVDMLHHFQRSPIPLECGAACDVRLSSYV
# T6 sequence (P46108 13-118): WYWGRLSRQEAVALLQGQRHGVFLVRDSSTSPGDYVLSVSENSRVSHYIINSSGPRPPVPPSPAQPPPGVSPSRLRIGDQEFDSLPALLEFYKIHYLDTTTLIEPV
binder,measurement,setting,value
"Rhodamine-ETDG[pY]VAPLTCSD (reading uncertain) [ErbB2 pY1127 phosphopeptide, rhodamine-labelled, for protein microarrays]",Kd,CRK SH2 domain,7710 nM
same,Kd,BLNK SH2 domain,1950 nM and 1250 nM
same,Kd,SH3BP2 SH2 domain,1140 nM and 2860 nM
same,Kd,GRB7 SH2 domain,1600 nM and 2530 nM
same,Kd,SH2B3 SH2 domain,1380 nM and 2300 nM
same,Kd,BCAR3 SH2 domain,726 nM
same,Kd,[1],1150 nM and 1530 nM
same,Kd,GRB10 SH2 domain,1900 nM and 2340 nM
